# Results: publication PMC10950856, “Structure of orthoreovirus RNA chaperone σNS, a component of viral replication factories” (Nature Communications, 2024)
# Changes are numbered by the printed parent chain. Names and notes keep the numbering of the source. Values joined by “and” are separate entries in the source; they are usually repeats but may differ in a detail not shown here. Equal entries are not always repeated.
# B1: σNS-ΔN17 (σNS lacking the N-terminal 17 residues) (domain or fragment)
# chain: GQQVCPNYVMLRSSVTTKVVRNVVEYQIRTGGFFSCLAMLRPLQYAKRERLLGQRNLERISTRDILQTRDLHSLCMPTPDAPMSNHQASTMRELICSYFKVDHADGLKYIPMDERYSPSSLARLFTMGMAGLHITTEPSYKRVPIMHLAADLDCMTLALPYMITLDGDTVVPVAPTLSAEQLLDDGLKGLACMDISYGCEVDANSRPAGDQSMDSSRCINELYCEETAEAICVLKTCLVLNCMQFKLEMDDLAHNAAELDKIQMMIPFSERVFRMASSFATIDAQCFRFCVMMKDKNLKIDMRETTRLWTRSASDDSVATSSLSISLDRGRWVAADASDARLLVFPIRV
# notes: σNS nonstructural protein of mammalian orthoreovirus, strain type 3 Dearing, truncated by the N-terminal 17 residues; synthesized gene in pET28; Dimer in solution and in the crystal; source: E. coli DE3 cells, purified (Ni-NTA, TEV cleavage, Q column, S200 SEC); not shown: His tag, N-terminal, cleaved
# B2: wildtype (WT) σNS (mammalian orthoreovirus, strain type 3 Dearing) (natural protein)
# chain: MASSLRAAISKIKRDDVGQQVCPNYVMLRSSVTTKVVRNVVEYQIRTGGFFSCLAMLRPLQYAKRERLLGQRNLERISTRDILQTRDLHSLCMPTPDAPMSNHQASTMRELICSYFKVDHADGLKYIPMDERYSPSSLARLFTMGMAGLHITTEPSYKRVPIMHLAADLDCMTLALPYMITLDGDTVVPVAPTLSAEQLLDDGLKGLACMDISYGCEVDANSRPAGDQSMDSSRCINELYCEETAEAICVLKTCLVLNCMQFKLEMDDLAHNAAELDKIQMMIPFSERVFRMASSFATIDAQCFRFCVMMKDKNLKIDMRETTRLWTRSASDDSVATSSLSISLDRGRWVAADASDARLLVFPIRV
# notes: σNS nonstructural protein of mammalian orthoreovirus, strain type 3 Dearing; synthesized gene in pET28; source: E. coli DE3 cells, purified (Ni-NTA, TEV cleavage, Q column, S200 SEC); not shown: His tag, N-terminal, cleaved
# B3: σNS-R6A (native, without Se-Met substitution) (natural protein)
# chain: B2 chain with R6A
# notes: σNS nonstructural protein of mammalian orthoreovirus, strain type 3 Dearing, with R6A; synthesized gene in pET28; Dimer in solution (~80 kDa); The N-terminal arm is disordered in the crystal with bile acid derivatives; also called native σNS-R6A; σNS R6A mutant; source: E. coli DE3 cells, purified (Ni-NTA, TEV cleavage, Q column, S200 SEC); not shown: His tag, N-terminal, cleaved
# B4: selenomethionine (Se-Met)-substituted σNS-R6A (natural protein)
# chain: B2 chain with R6A
# modifications: selenomethionine in place of methionine (Se-Met-substituted; Mse 1 named)
# notes: σNS nonstructural protein of mammalian orthoreovirus, strain type 3 Dearing, with R6A; synthesized gene in pET28; Octamer by SEC; helical assembly of dimers in the crystal; Residue 1 (Mse 1) is seen in the structure; also called Se-Met σNS-R6A; source: E. coli B834 cells in medium with Se-Met, purified (Ni-NTA, TEV cleavage, Q column, S200 SEC); not shown: His tag, N-terminal, cleaved
# How the values were obtained:
# [1] = target: the molecule itself; assay: not stated; in solution; the method is not named for this construct (the constructs were purified on an S200 16/60-increase column)
# [2] = target: the molecule itself; assay: SEC; S200 16/60-increase column, 10 mM HEPES (pH 8.0), 150 mM NaCl, after anion-exchange chromatography; size of the oligomer from the elution volume
Protein,stoichiometry N [1],stoichiometry N [2]
B1,2,–
B2,–,10 and 8
B3,–,2
B4,–,8
